The text below walks through data of patent US20110086089A1 (UNIVERSITY HEALTH NETWORK, published 2011).

In the assay the target is T1, wt.CK2-alpha-prime immobilized on GST-beads (UniProt P19784 1-350).
T1 construct: also called GST-CK2-alpha-prime; recombinant CK2-alpha-prime; not shown: N-terminal GST tag of pGEX-2lambdaT
Briefly: GST pull-down of in vitro-translated His-tagged p27 mutants on GST-CK2-alpha-prime, anti-His immunoblot. On the technique in general: In western blotting, separated proteins are transferred to a membrane and probed.

T1 sequence (P19784 whole entry): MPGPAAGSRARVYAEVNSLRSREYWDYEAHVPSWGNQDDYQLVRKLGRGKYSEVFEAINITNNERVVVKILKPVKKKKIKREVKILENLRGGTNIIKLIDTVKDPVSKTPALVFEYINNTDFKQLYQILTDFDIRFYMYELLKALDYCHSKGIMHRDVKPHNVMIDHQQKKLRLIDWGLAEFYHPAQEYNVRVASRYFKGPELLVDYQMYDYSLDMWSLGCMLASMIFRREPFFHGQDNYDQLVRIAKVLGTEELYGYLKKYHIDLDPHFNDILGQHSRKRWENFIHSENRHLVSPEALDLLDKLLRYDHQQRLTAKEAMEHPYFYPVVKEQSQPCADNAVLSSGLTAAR

B1: p27deltaC (p27.1-86), in vitro-translated His-tagged truncation mutant of p27 (other)
chain: MSNVRVSNGSPSLERMDARQADHPKPSACRNLFGPVDHEELTRDLEKHCRDMEEASQRKWNFDFQNHKPLEGKYEWQEVEKGSLPE
notes: also called p27ΔC; not shown: N-terminal His-tag of pEXP2
In the case of B1, the binding result is recorded as “no binding”.
